What all share (assay): SPR (BIACORE); KD of SG1 / KD of variant;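 further: relative to parent M103205H795-SG1 carrying the SG1 human heavy chain constant region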
(In general: SPR reads the build-up and loss of mass on a sensor chip optically.)

The target of assay [1] is T1, cynomolgus monkey FcγRIIa1 extracellular domain with C-terminal His-tag (cynomolgus monkey).
T1 construct: also called cyno FcgRIIa1; cynoFcγRIIa1
T1 chain: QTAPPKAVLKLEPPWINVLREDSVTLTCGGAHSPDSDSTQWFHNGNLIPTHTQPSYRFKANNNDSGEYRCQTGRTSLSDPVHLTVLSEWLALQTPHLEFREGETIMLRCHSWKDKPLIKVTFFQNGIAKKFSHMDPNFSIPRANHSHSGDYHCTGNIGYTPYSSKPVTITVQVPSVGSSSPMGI

Assay [2] concerns the target T2, cynomolgus monkey FcγRIIa2 extracellular domain with C-terminal His-tag (cynomolgus monkey).
T2 construct: also called cyno FcgRIIa2; cynoFcγRIIa2
T2 chain: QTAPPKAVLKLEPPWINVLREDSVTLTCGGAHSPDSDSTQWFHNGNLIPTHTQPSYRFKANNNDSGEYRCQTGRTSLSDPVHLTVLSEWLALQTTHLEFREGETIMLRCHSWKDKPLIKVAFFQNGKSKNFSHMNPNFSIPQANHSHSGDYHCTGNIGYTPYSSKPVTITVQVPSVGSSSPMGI

Assay [3] deals with T3, cynomolgus monkey FcγRIIa3 extracellular domain with C-terminal His-tag (cynomolgus monkey).
T3 construct: also called cyno FcgRIIa3; cynoFcγRIIa3
T3 chain: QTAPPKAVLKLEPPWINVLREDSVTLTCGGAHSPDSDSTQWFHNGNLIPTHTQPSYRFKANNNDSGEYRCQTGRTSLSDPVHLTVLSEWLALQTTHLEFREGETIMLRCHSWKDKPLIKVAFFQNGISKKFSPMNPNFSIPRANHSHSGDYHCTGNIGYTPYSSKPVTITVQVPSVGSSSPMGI

The target of assay [4] is T4, cynomolgus monkey FcγRIIb extracellular domain with C-terminal His-tag (cynomolgus monkey).
T4 construct: also called cyno FcgRIIb; cynoFcγRIIb
T4 chain: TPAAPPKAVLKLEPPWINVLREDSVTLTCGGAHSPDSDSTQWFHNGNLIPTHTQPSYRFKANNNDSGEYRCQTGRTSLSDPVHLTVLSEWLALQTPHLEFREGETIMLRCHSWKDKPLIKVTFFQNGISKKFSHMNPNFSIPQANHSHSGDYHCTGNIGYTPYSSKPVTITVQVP

Assay [5] addresses T5, human FcγRIIaH extracellular domain with C-terminal His-tag (human, UniProt P12318 34-217).
T5 construct: also called human FcgRIIaH; FcγRIIa (type H)
T5 sequence: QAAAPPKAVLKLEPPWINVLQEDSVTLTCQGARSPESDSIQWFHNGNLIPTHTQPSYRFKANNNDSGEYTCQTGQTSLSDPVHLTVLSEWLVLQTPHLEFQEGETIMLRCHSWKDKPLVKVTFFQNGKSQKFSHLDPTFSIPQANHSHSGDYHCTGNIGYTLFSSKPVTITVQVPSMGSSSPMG

Assay [6] deals with T6, human FcγRIIaR extracellular domain with C-terminal His-tag (human, UniProt P12318 34-217).
T6 construct: also called human FcgRIIaR; FcγRIIa (type R)
T6 chain: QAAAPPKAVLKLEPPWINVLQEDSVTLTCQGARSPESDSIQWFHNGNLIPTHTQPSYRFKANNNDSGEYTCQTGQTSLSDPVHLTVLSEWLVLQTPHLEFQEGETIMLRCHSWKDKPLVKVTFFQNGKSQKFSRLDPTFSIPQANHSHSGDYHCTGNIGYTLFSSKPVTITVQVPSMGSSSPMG

Assay [7] concerns the target T7, human FcγRIIb extracellular domain with C-terminal His-tag (human, UniProt P31994 43-217).
T7 construct: also called human FcgRIIb
T7 sequence: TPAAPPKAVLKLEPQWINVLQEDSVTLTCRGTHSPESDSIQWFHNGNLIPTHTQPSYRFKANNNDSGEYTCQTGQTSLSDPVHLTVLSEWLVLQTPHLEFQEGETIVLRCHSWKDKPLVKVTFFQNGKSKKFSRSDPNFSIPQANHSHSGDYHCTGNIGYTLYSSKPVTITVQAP

The target in assay [8] is T8, human FcγRIIIaV extracellular domain with C-terminal His-tag (human, UniProt P08637 17-208).
T8 construct: also called human FcgRIIIaV
T8 sequence (P08637 17-208 F176V): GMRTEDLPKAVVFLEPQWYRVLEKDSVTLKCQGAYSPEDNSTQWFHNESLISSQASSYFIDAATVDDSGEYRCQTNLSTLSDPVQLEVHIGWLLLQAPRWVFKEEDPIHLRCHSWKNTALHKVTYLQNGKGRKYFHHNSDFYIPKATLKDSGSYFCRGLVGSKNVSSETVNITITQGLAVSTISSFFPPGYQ

B1: M103205H795-MY387/M103202L889-SK1 (antibody, human IgG1, kappa)
heavy: QVTLKESGPVLVKPTETLTLTCTVSGIDLSHDDISWVRQAPGKGLEWVGIISYAGSTYYASWAKGRLTISKDTSKNQVVLTMTNMDPVDTATYYCARGVPAYSHGGDLWGQGTLVTVSSASTKGPSVFPLAPSSKSTSGGTAALGCLVKDYFPEPVTVSWNSGALTSGVHTFPAVLQSSGLYSLSSVVTVPSSSLGTQTYICNVNHKPSNTKVDKKVEPKSCDKTHTCPPCPAPELLTGPVVFLFPPKPKDTLMISRTPEVTCVVVDVSDEDPEVKFNWYVDGVEVHNAKTKPREEQYNSTYRVVSVLTVLHQDWLNGKEYKCKVSNKALPKPIEKTISKAKGQPREPQVYTLPPSREEMTKNQVSLTCLVKGFYPSDIAVEWESNGQPENNYKTTPPVLDSDGSFFLYSKLTVDKSRWQQGNVFSCSVMHEALHNHYTQKSLSLSP
light: DIVMTQSPATLSLSPGERATLSCTSSQSVYHANWLSWFQQKPGQPPKLLIYWASTLAYGVPSRFSGSGSGTDFTLTISSLQPEDAATYYCAGGYGGGRYAFGQGTKVEIKRTVAAPSVFIFPPSDEQLKSGTASVVCLLNNFYPREAKVQWKVDNALQSGNSQESVTEQDSKDSTYSLSSTLTLSKADYEKHKVYACEVTHQGLSSPVTKSFNRGEC
notes: Substitutions introduced into M103205H795-SG1, expressed with M103202L889-SK1 as light chain; EU numbering
For the molecule B1, the “KD fold (SG1 = 1)” value in assay [1] is 1.4 fold; in assay [2], 2.7 fold; in assay [3] it was 12.1 fold; in assay [4], 2.2 fold; in assay [5], 2.5 fold; in assay [6], 3.5 fold. In addition, the “KD fold (SG1 = 1)” value in assay [7] amounted to 2.5 fold; in assay [8] it was 0.17 fold.

B2: M103205H795-MY392/M103202L889-SK1 (antibody, human IgG1, kappa)
heavy: QVTLKESGPVLVKPTETLTLTCTVSGIDLSHDDISWVRQAPGKGLEWVGIISYAGSTYYASWAKGRLTISKDTSKNQVVLTMTNMDPVDTATYYCARGVPAYSHGGDLWGQGTLVTVSSASTKGPSVFPLAPSSKSTSGGTAALGCLVKDYFPEPVTVSWNSGALTSGVHTFPAVLQSSGLYSLSSVVTVPSSSLGTQTYICNVNHKPSNTKVDKKVEPKSCDKTHTCPPCPAPELLTGPSVFLFPPKPKDTLMISRTPEVTCVVVDVSDEDPEVKFNWYVDGVEVHNAKTKPREEQYNLTYRVVSVLTVLHQDWLNGKEYKCKVSNKALPKPIEKTISKAKGQPREPQVYTLPPSREEMTKNQVSLTCLVKGFYPSDIAVEWESNGQPENNYKTTPPVLDSDGSFFLYSKLTVDKSRWQQGNVFSCSVMHEALHNHYTQKSLSLSP
light: DIVMTQSPATLSLSPGERATLSCTSSQSVYHANWLSWFQQKPGQPPKLLIYWASTLAYGVPSRFSGSGSGTDFTLTISSLQPEDAATYYCAGGYGGGRYAFGQGTKVEIKRTVAAPSVFIFPPSDEQLKSGTASVVCLLNNFYPREAKVQWKVDNALQSGNSQESVTEQDSKDSTYSLSSTLTLSKADYEKHKVYACEVTHQGLSSPVTKSFNRGEC
notes: as for B1
For the molecule B2, the “KD fold (SG1 = 1)” value in assay [1] is 10.7 fold; in assay [2], 2.2 fold; in assay [3], 4.4 fold; in assay [4] it was 2.6 fold; in assay [5] it was 1.6 fold; in assay [6], 2.7 fold. The entries for the “KD fold (SG1 = 1)” value in assay [7] and in assay [8] were 2.7 fold and 0.09 fold, respectively.

B3: M103205H795-MY389/M103202L889-SK1 (antibody, human IgG1, kappa)
heavy: QVTLKESGPVLVKPTETLTLTCTVSGIDLSHDDISWVRQAPGKGLEWVGIISYAGSTYYASWAKGRLTISKDTSKNQVVLTMTNMDPVDTATYYCARGVPAYSHGGDLWGQGTLVTVSSASTKGPSVFPLAPSSKSTSGGTAALGCLVKDYFPEPVTVSWNSGALTSGVHTFPAVLQSSGLYSLSSVVTVPSSSLGTQTYICNVNHKPSNTKVDKKVEPKSCDKTHTCPPCPAPELLTGPLVFLFPPKPKDTLMISRTPEVTCVVVDVSDEDPEVKFNWYVDGVEVHNAKTKPREEQYNSTYRVVSVLTVLHQDWLNGKEYKCKVSNKALPKPIEKTISKAKGQPREPQVYTLPPSREEMTKNQVSLTCLVKGFYPSDIAVEWESNGQPENNYKTTPPVLDSDGSFFLYSKLTVDKSRWQQGNVFSCSVMHEALHNHYTQKSLSLSP
light: DIVMTQSPATLSLSPGERATLSCTSSQSVYHANWLSWFQQKPGQPPKLLIYWASTLAYGVPSRFSGSGSGTDFTLTISSLQPEDAATYYCAGGYGGGRYAFGQGTKVEIKRTVAAPSVFIFPPSDEQLKSGTASVVCLLNNFYPREAKVQWKVDNALQSGNSQESVTEQDSKDSTYSLSSTLTLSKADYEKHKVYACEVTHQGLSSPVTKSFNRGEC
notes: as for B1
With B3, the “KD fold (SG1 = 1)” value in assay [1] turned out to be 1.6 fold; in assay [2], 3.2 fold; in assay [3], 12.1 fold; in assay [4] it was 2.6 fold; in assay [5], 2.6 fold; in assay [6], 5.8 fold. Besides, the “KD fold (SG1 = 1)” value in assay [7] amounted to 4.2 fold; in assay [8], 0.23 fold.

B4: M103205H795-MY388/M103202L889-SK1 (antibody, human IgG1, kappa)
heavy: QVTLKESGPVLVKPTETLTLTCTVSGIDLSHDDISWVRQAPGKGLEWVGIISYAGSTYYASWAKGRLTISKDTSKNQVVLTMTNMDPVDTATYYCARGVPAYSHGGDLWGQGTLVTVSSASTKGPSVFPLAPSSKSTSGGTAALGCLVKDYFPEPVTVSWNSGALTSGVHTFPAVLQSSGLYSLSSVVTVPSSSLGTQTYICNVNHKPSNTKVDKKVEPKSCDKTHTCPPCPAPELLTGPIVFLFPPKPKDTLMISRTPEVTCVVVDVSDEDPEVKFNWYVDGVEVHNAKTKPREEQYNSTYRVVSVLTVLHQDWLNGKEYKCKVSNKALPKPIEKTISKAKGQPREPQVYTLPPSREEMTKNQVSLTCLVKGFYPSDIAVEWESNGQPENNYKTTPPVLDSDGSFFLYSKLTVDKSRWQQGNVFSCSVMHEALHNHYTQKSLSLSP
light: DIVMTQSPATLSLSPGERATLSCTSSQSVYHANWLSWFQQKPGQPPKLLIYWASTLAYGVPSRFSGSGSGTDFTLTISSLQPEDAATYYCAGGYGGGRYAFGQGTKVEIKRTVAAPSVFIFPPSDEQLKSGTASVVCLLNNFYPREAKVQWKVDNALQSGNSQESVTEQDSKDSTYSLSSTLTLSKADYEKHKVYACEVTHQGLSSPVTKSFNRGEC
notes: as for B1
Consider B4, for which the “KD fold (SG1 = 1)” value is 1.5 fold in assay [1]; 3 fold in assay [2]; 13.1 fold in assay [3]; 2.4 fold in assay [4]; 2.1 fold in assay [5]; 4.8 fold in assay [6]. Moreover, the results for the “KD fold (SG1 = 1)” value in assay [7] and in assay [8] were 3.1 fold and 0.19 fold, respectively.

(Values after US20200317768A1 (published 2020).)
